Experimental data from PMC4875570.
Where “and” joins values, the source holds several entries; their conditions need not be identical. Equal values may be shown once.

Key:
[1] = target: severe acute respiratory syndrome (SARS) coronavirus papain-like protease (PLpro), wild type (SARS coronavirus) (UniProt P0C6X7)
[2] = target: severe acute respiratory syndrome (SARS) coronavirus papain-like protease (PLpro), wild type (SARS coronavirus) (UniProt P0C6X7); experiment: inhibition of AMC substrate cleavage

ISG15-AMC
KM of ISG15-AMC cleavage [1]: 15.9 µM
apparent kcat/KM of ISG15-AMC cleavage (Michaelis-Menten kinetics) [1]: 598000 M⁻¹ s⁻¹

Lys48-linked tri-ubiquitin (triUb^Lys48), free chain (from UniProt P0CG48 1-76) (complex)
Ki [2]: 10.6 µM and 10.1 µM and 4.08 µM

monoUb-AMC (from UniProt P0CG48 1-76)
KM of monoUb-AMC cleavage [1]: 15.1 µM
apparent kcat/KM of monoUb-AMC cleavage (Michaelis-Menten kinetics) [1]: 33300 M⁻¹ s⁻¹

triazole-linked diUb^Lys48-AMC (from UniProt P0CG48) (complex)
KM of triazole-linked diUb^Lys48-AMC cleavage [1]: 33.4 µM
